The target of test [1] is MSLN expressed on the cell surface of human cancer cell lines N87 and H226 (human, UniProt Q13421 37-598). Put plainly: cell-based or functional assay.
The target of test [2] is T1, mesothelin (MSLN) (UniProt Q13421 296-580).
T1 construct: also called immobilized MSLN
Description: ELISA, MSLN coated on plate, IgG1 detected with anti-human IgG HRP.

Test [3] has as its target T1, mesothelin (MSLN). Put plainly: ELISA, MSLN coated on plate, IgG1-vcMMAE detected with anti-human IgG HRP.

This is an account of results in patent publication US20240277865A1 (ACADEMIA SINICA, published 2024).

T1 sequence (Q13421 other isoform, or with tags, fused parts or gaps limits assumed): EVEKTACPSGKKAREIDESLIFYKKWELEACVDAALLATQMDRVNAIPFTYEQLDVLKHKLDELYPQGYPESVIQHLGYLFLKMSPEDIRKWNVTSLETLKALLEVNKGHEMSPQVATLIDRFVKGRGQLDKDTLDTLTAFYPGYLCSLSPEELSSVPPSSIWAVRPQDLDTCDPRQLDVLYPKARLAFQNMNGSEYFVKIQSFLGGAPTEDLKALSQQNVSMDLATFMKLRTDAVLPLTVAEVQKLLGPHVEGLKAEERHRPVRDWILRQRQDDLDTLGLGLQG

B1: CHS5 IgG (antibody, V domains shown)
VH: EVQLVESGGGLVQPGGSLRLSCAASGFTITDRTIHWVRQAPGKGLEWVASIFPTKGVTTYADSVKGRFTISADTSKNTAYLQMNSLRAEDTAVYYCARGRYWMDYWGQGTLVTVSS
VL: DIQMTQSPSSLSASVGDRVTITCRASQDVKEGVAWYQQKPGKAPKLLIDQSHRLYSGVPSRFSGSGSGTDFTLTISSLQPEDFATYYCQQYYAWPSTFGQGTKVEIKR
notes: also called IgG1-CHS5
One may read the EC50 as the concentration at which the effect is half-maximal. Read a low EC50 as higher potency in that assay. B1: the “IgG1-AL1-PE38KDEL IC50 (nM), cell viability of N87 cells” value (“IgG1-AL1-PE38KDEL IC50 (nM)” below) in test [1] amounted to 0.06 nM. In addition, in the test with mesothelin (MSLN) [2], the EC50 amounted to 4.67 ng/mL.

B2: CHS5-vcMMAE (antibody, V domains shown)
VH: EVQLVESGGGLVQPGGSLRLSCAASGFTITDRTIHWVRQAPGKGLEWVASIFPTKGVTTYADSVKGRFTISADTSKNTAYLQMNSLRAEDTAVYYCARGRYWMDYWGQGTLVTVSS
VL: DIQMTQSPSSLSASVGDRVTITCRASQDVKEGVAWYQQKPGKAPKLLIDQSHRLYSGVPSRFSGSGSGTDFTLTISSLQPEDFATYYCQQYYAWPSTFGQGTKVEIKR
notes: also called CHS5 IgG1-vcMMAE
In the case of B2, the “IgG1-vcMMAE IC50 (nM), cell viability of N87 cells” value (shortened to “IgG1-vcMMAE IC50 (nM)”) in test [1] was 15 nM. Also, the EC50 with mesothelin (MSLN) [3] was 9.56 ng/mL.

B3: CHS8-vcMMAE (antibody, V domains shown)
VH: EVQLVESGGGLVQPGGSLRLSCAASGFTISKASIHWVRQAPGKGLEWVASIWPTKGFTTYADSVKGRFTISADTSKNTAYLQMNSLRAEDTAVYYCARGRYWLDYWGQGTLVTVSS
VL: DIQMTQSPSSLSASVGDRVTITCRASQDVKEGVAWYQQKPGKAPKLLIDERERLYSGVPSRFSGSGSGTDFTLTISSLQPEDFATYYCQQYNTWPATFGQGTKVEIKR
notes: also called CHS8 IgG1-vcMMAE
B3: the “IgG1-vcMMAE IC50 (nM)” value in test [1] is 24.6 nM. The same molecule displayed an EC50 with mesothelin (MSLN) [3] of 9.26 ng/mL.

B4: ALA12 IgG (antibody, V domains shown)
VH: EVQLVESGGGLVQPGGSLRLSCAASGFTIGNWTIHWVRQAPGKGLEWVALIWPESGATLYADSVKGRFTISADTSKNTAYLQMNSLRAEDTAVYYCARGRYWMDYWGQGTLVTVSS
VL: DIQMTQSPSSLSASVGDRVTITCRASQDVRDGVAWYQQKPGKAPKLLIDQMVRLYSGVPSRFSGSGSGTDFTLTISSLQPEDFATYYCQQYFNWPVTFGQGTKVEIKR
Regarding B4, in test [1], the “IgG1-AL1-PE38KDEL IC50 (nM)” value came to 0.1 nM. The molecule also had a concentration for a half-maximal effect (EC50) with mesothelin (MSLN) [2] of 8.37 ng/mL.

B5: CHS7-vcMMAE (antibody, V domains shown)
VH: EVQLVESGGGLVQPGGSLRLSCAASGFTIDKEAIHWVRQAPGKGLEWVASIYPHSGFTLYADSVKGRFTISADTSKNTAYLQMNSLRAEDTAVYYCARGRYWMDYWGQGTLVTVSS
VL: DIQMTQSPSSLSASVGDRVTITCRASQDVEDGVAWYQQKPGKAPKLLIGIKDLLYSGVPSRFSGSGSGTDFTLTISSLQPEDFATYYCQQYYRWPSTFGQGTKVEIKR
notes: also called CHS7 IgG1-vcMMAE
On to B5, for which, in test [1], the “IgG1-vcMMAE IC50 (nM)” value worked out at 25.9 nM. Also, a half-maximal effect with mesothelin (MSLN) [3] (EC50) was put at 16.3 ng/mL.

B6: ALA12-vcMMAE (antibody, V domains shown)
VH: EVQLVESGGGLVQPGGSLRLSCAASGFTIGNWTIHWVRQAPGKGLEWVALIWPESGATLYADSVKGRFTISADTSKNTAYLQMNSLRAEDTAVYYCARGRYWMDYWGQGTLVTVSS
VL: DIQMTQSPSSLSASVGDRVTITCRASQDVRDGVAWYQQKPGKAPKLLIDQMVRLYSGVPSRFSGSGSGTDFTLTISSLQPEDFATYYCQQYFNWPVTFGQGTKVEIKR
notes: also called ALA12 IgG1-vcMMAE
Consider B6, for which the “IgG1-vcMMAE IC50 (nM)” value in test [1] worked out at 39.9 nM. Besides, the midpoint of the response in the test with mesothelin (MSLN) [3], the EC50, lay at 10.5 ng/mL.

B7: CHS8 IgG (antibody, V domains shown)
VH: EVQLVESGGGLVQPGGSLRLSCAASGFTISKASIHWVRQAPGKGLEWVASIWPTKGFTTYADSVKGRFTISADTSKNTAYLQMNSLRAEDTAVYYCARGRYWLDYWGQGTLVTVSS
VL: DIQMTQSPSSLSASVGDRVTITCRASQDVKEGVAWYQQKPGKAPKLLIDERERLYSGVPSRFSGSGSGTDFTLTISSLQPEDFATYYCQQYNTWPATFGQGTKVEIKR
Consider B7, for which, in test [1], the “IgG1-AL1-PE38KDEL IC50 (nM)” value was 0.01 nM. Also, in the test with mesothelin (MSLN) [2], a half-maximal effect (EC50) was put at 5.05 ng/mL.

B8: CHS7 IgG (antibody, V domains shown)
VH: EVQLVESGGGLVQPGGSLRLSCAASGFTIDKEAIHWVRQAPGKGLEWVASIYPHSGFTLYADSVKGRFTISADTSKNTAYLQMNSLRAEDTAVYYCARGRYWMDYWGQGTLVTVSS
VL: DIQMTQSPSSLSASVGDRVTITCRASQDVEDGVAWYQQKPGKAPKLLIGIKDLLYSGVPSRFSGSGSGTDFTLTISSLQPEDFATYYCQQYYRWPSTFGQGTKVEIKR
In the case of B8, the “IgG1-AL1-PE38KDEL IC50 (nM)” value in test [1] came out at 0.06 nM. This molecule yielded an EC50 in the test with mesothelin (MSLN) [2] of 10.3 ng/mL.
